The source of these data is the supplement of paper PMC10567573.

First the molecules themselves.
B1: MYBL2 (parent)
chain: FSPSQFLNFWNKQDTLELESPSLT
B2: WDFY1 (parent)
chain: FWNIKQMWDTKTLGLRQHHCRKCG
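Note: lentivirally expressed fusions sorted by FACS into six bins by GFP to DsRed ratio, PSI derived from sequencing read proportions per bin multiplied by bin number.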

The first series covers variants of B1. Kind of series: protein stability index of a GFP-peptide fusion (GPS, HEK-293T) (PSI 1-6); higher = more stable. The settings on record: c terminus: a fixed tail appended.
Regarding FSPSQFLNFWNKQDTLELESPSLP, the protein stability index was determined as 3.08.

Take FSPSQFLNFWNKQDTLELESPSLS: the protein stability index amounted to 2.36.

Take FSPSQFLNFWNKQDTLELESPSLM: the protein stability index came to 2.65.

FSPSQFLNFWNKQDTLELESPSLY: the protein stability index is 2.73.

Take FSPSQFLNFWNKQDTLELESPSLN: the protein stability index turned out to be 2.1.

Take FSPSQFLNFWNKQDTLELESPSLI: the protein stability index was 2.2.

With FSPSQFLNFWNKQDTLELESPSLW, the protein stability index came out at 2.86.

Take FSPSQFLNFWNKQDTLELESPSLL: the protein stability index turned out to be 2.52.

FSPSQFLNFWNKQDTLELESPSLK: the protein stability index came out at 3.62.

In the case of FSPSQFLNFWNKQDTLELESPSLE, the protein stability index is 2.34.

As for FSPSQFLNFWNKQDTLELESPSLR, the protein stability index was determined as 3.41.

Take FSPSQFLNFWNKQDTLELESPSLA: the protein stability index stood at 3.17.

Regarding FSPSQFLNFWNKQDTLELESPSLC, the protein stability index amounted to 3.38.

FSPSQFLNFWNKQDTLELESPSNT: the protein stability index was 2.65.

As for FSPSQFLNFWNKQDTLELESPSHT, the protein stability index was determined as 2.79.

Consider FSPSQFLNFWNKQDTLELESPSIT, for which the protein stability index worked out at 4.19.

With FSPSQFLNFWNKQDTLELESPSMT, the protein stability index came to 2.41.

In the case of FSPSQFLNFWNKQDTLELESPSVT, the protein stability index is 2.91.

Regarding FSPSQFLNFWNKQDTLELESPSRT, the protein stability index is 2.97.

With FSPSQFLNFWNKQDTLELESPSST, the protein stability index was determined as 2.13.

The variants in another series derive from B2. The description is as above. The settings on record: c terminus: a fixed tail appended.
FWNIKQMEDTKTLGLRQHHCRKCG: the protein stability index worked out at 2.44.

As for FWNIKQMTDTKTLGLRQHHCRKCG, the protein stability index came out at 2.52.

Take FWNIKQMRDTKTLGLRQHHCRKCG: the protein stability index is 1.42.

In the case of FWNIKQMHDTKTLGLRQHHCRKCG, the protein stability index stood at 2.24.

Consider FWNIKQMVDTKTLGLRQHHCRKCG, for which the protein stability index came to 2.15.

With FWNIKQMCDTKTLGLRQHHCRKCG, the protein stability index came to 2.54.

Regarding FWNIKQMNDTKTLGLRQHHCRKCG, the protein stability index was 2.25.

For FWNIKQMYDTKTLGLRQHHCRKCG, the protein stability index was 2.6.

Consider FWNIKQMGDTKTLGLRQHHCRKCG, for which the protein stability index stood at 2.81.

FWNIKQMIDTKTLGLRQHHCRKCG: the protein stability index was found to be 1.75.

With FWNIKQMMDTKTLGLRQHHCRKCG, the protein stability index is 2.78.

As to FWNIKQMSDTKTLGLRQHHCRKCG, the protein stability index is 3.12.

On to FWNIKQMADTKTLGLRQHHCRKCG, for which the protein stability index was found to be 2.57.

Take FWNIKQMDDTKTLGLRQHHCRKCG: the protein stability index came to 3.27.

In the case of FWNIKQMPDTKTLGLRQHHCRKCG, the protein stability index was 2.73.

In the case of FWNIKQMFDTKTLGLRQHHCRKCG, the protein stability index stood at 1.67.

With FWNIKQMLDTKTLGLRQHHCRKCG, the protein stability index stood at 1.76.

FWNIKQMQDTKTLGLRQHHCRKCG: the protein stability index stood at 2.59.

Turning to FWNIKQMKDTKTLGLRQHHCRKCG, the protein stability index came to 2.18.

On to FWNCKQMWDTKTLGLRQHHCRKCG, for which the protein stability index came out at 2.67.

For FWNLKQMWDTKTLGLRQHHCRKCG, the protein stability index amounted to 1.74.

In the case of FWNGKQMWDTKTLGLRQHHCRKCG, the protein stability index came to 2.19.

As to FWNNKQMWDTKTLGLRQHHCRKCG, the protein stability index came to 2.13.

As to FWNKKQMWDTKTLGLRQHHCRKCG, the protein stability index turned out to be 2.

For FWNMKQMWDTKTLGLRQHHCRKCG, the protein stability index turned out to be 2.35.

As to FWNRKQMWDTKTLGLRQHHCRKCG, the protein stability index came to 1.45.

Turning to FWNPKQMWDTKTLGLRQHHCRKCG, the protein stability index worked out at 2.55.

Regarding FWNAKQMWDTKTLGLRQHHCRKCG, the protein stability index is 1.89.

On to FWNSKQMWDTKTLGLRQHHCRKCG, for which the protein stability index worked out at 1.95.

On to FWNTKQMWDTKTLGLRQHHCRKCG, for which the protein stability index turned out to be 2.14.

As to FWNDKQMWDTKTLGLRQHHCRKCG, the protein stability index was found to be 2.56.

FWNFKQMWDTKTLGLRQHHCRKCG: the protein stability index is 1.54.

Regarding FWNHKQMWDTKTLGLRQHHCRKCG, the protein stability index was 2.56.

Regarding FWNEKQMWDTKTLGLRQHHCRKCG, the protein stability index worked out at 3.05.

In the case of FWNYKQMWDTKTLGLRQHHCRKCG, the protein stability index is 1.9.

On to FWNQKQMWDTKTLGLRQHHCRKCG, for which the protein stability index was determined as 3.12.

In the case of FWNVKQMWDTKTLGLRQHHCRKCG, the protein stability index is 2.52.

Consider FWNWKQMWDTKTLGLRQHHCRKCG, for which the protein stability index came to 3.44.

As to FWNIKQMWETKTLGLRQHHCRKCG, the protein stability index worked out at 1.95.

As to FWNIKQMWGTKTLGLRQHHCRKCG, the protein stability index amounted to 1.73.

In the case of FWNIKQMWLTKTLGLRQHHCRKCG, the protein stability index amounted to 1.6.

Turning to FWNIKQMWRTKTLGLRQHHCRKCG, the protein stability index was 2.24.

Regarding FWNIKQMWHTKTLGLRQHHCRKCG, the protein stability index stood at 2.05.

With FWNIKQMWMTKTLGLRQHHCRKCG, the protein stability index came out at 1.25.

FWNIKQMWITKTLGLRQHHCRKCG: the protein stability index turned out to be 1.94.

On to FWNIKQMWCTKTLGLRQHHCRKCG, for which the protein stability index came to 1.53.

Regarding FWNIKQMWQTKTLGLRQHHCRKCG, the protein stability index is 1.5.

FWNIKQMWVTKTLGLRQHHCRKCG: the protein stability index was found to be 3.82.

Take FWNIKQMWFTKTLGLRQHHCRKCG: the protein stability index was 1.7.

Take FWNIKQMWKTKTLGLRQHHCRKCG: the protein stability index was 1.33.

For FWNIKQMWSTKTLGLRQHHCRKCG, the protein stability index stood at 2.02.

With FWNIKQMWATKTLGLRQHHCRKCG, the protein stability index worked out at 1.98.

In the case of FWNIKQMWNTKTLGLRQHHCRKCG, the protein stability index was 1.77.

Turning to FWNIKQMWTTKTLGLRQHHCRKCG, the protein stability index stood at 1.47.

Turning to FWNIKWMWDTKTLGLRQHHCRKCG, the protein stability index was 1.79.

Turning to FWNIKEMWDTKTLGLRQHHCRKCG, the protein stability index was 2.37.

With FWNIKLMWDTKTLGLRQHHCRKCG, the protein stability index turned out to be 1.47.

On to FWNIKIMWDTKTLGLRQHHCRKCG, for which the protein stability index came to 2.45.

Take FWNIKPMWDTKTLGLRQHHCRKCG: the protein stability index turned out to be 1.97.

For FWNIKRMWDTKTLGLRQHHCRKCG, the protein stability index was found to be 2.38.

For FWNIKGMWDTKTLGLRQHHCRKCG, the protein stability index is 2.55.

For FWNIKKMWDTKTLGLRQHHCRKCG, the protein stability index turned out to be 2.13.

In the case of FWNIKAMWDTKTLGLRQHHCRKCG, the protein stability index was found to be 1.9.

Consider FWNIKSMWDTKTLGLRQHHCRKCG, for which the protein stability index amounted to 2.01.

For FWNIKVMWDTKTLGLRQHHCRKCG, the protein stability index is 2.5.

For the variant FWNIKHMWDTKTLGLRQHHCRKCG, the protein stability index turned out to be 2.22.

As to FWNIKNMWDTKTLGLRQHHCRKCG, the protein stability index amounted to 2.22.

On to FWNIKYMWDTKTLGLRQHHCRKCG, for which the protein stability index came to 1.92.

FWNIKMMWDTKTLGLRQHHCRKCG: the protein stability index worked out at 2.06.

Regarding FWNIKTMWDTKTLGLRQHHCRKCG, the protein stability index was 2.04.

Consider FWNIKDMWDTKTLGLRQHHCRKCG, for which the protein stability index stood at 2.42.

With FWNIKFMWDTKTLGLRQHHCRKCG, the protein stability index was found to be 2.36.

In the case of FWNIKCMWDTKTLGLRQHHCRKCG, the protein stability index was determined as 2.29.

Take FTNIKQMWDTKTLGLRQHHCRKCG: the protein stability index was 1.67.
